# Like-named read-outs stand apart in the source and are kept apart here.
# T1: MUC5AC short construct (Homo sapiens, UniProt P98088, I3234V)
# T1 construct: expressed in transfected cells; host or cells: CHO cells, transient/clonal plasmid transfection
# T1 sequence (P98088 3212-3339 I3234V): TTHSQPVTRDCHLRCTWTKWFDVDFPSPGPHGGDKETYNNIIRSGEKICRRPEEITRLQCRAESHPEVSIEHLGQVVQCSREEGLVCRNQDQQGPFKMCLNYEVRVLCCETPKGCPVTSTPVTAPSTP
# T2: MUC5AC long construct (Homo sapiens, UniProt P98088, DEL3501-3501/G3481S/I3234V)
# T2 construct: expressed in transfected cells; host or cells: CHO cells, transient/clonal plasmid transfection
# T2 sequence (P98088 with tags, fused parts or gaps I3234V/G3481S/DEL3501-3501): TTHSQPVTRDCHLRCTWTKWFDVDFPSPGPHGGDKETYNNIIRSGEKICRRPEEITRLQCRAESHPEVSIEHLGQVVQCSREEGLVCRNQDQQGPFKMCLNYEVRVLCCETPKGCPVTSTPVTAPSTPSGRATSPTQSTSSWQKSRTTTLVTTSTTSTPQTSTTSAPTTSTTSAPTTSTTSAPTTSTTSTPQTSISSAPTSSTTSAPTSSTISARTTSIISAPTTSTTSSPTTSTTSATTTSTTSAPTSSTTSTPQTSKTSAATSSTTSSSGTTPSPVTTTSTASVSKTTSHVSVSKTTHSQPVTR
# B1: NEO-101: Chimeric NEO-101 antibody, engineered in CHO-DG44 production cell clone 4B7; targets a variant of MUC5AC (protein)
# light: QVVLTQSPVIMSASPGEKVTMTCSASSSISYMYWYQQKPGTSPKRWIYDTSKLASGVPARFSGSGSGTSYSLTISNMEAGDAATYYCHQRDSYPWTFGGGTNLEIK
# heavy: QVQLKESGPDLVAPSQSLSITCTVSGFSLSKFGVNWVRQPPGKGLEWLGVIWGDGSTSYNSGLISRLSISKENSKSQVFLKLNSLQADDTATYYCVKPGGDYWGHGTSVTVSS
# Key:
# [1] = system: lung cancer cell line A549; assay: Immunofluorescence with FITC labeled NEO-101; format: cell-based, human; conditions: 2 μg/ml FITC labeled antibody
# [2] = system: human AsPC-1 pancreas tumor; assay: AsPC-1 pancreas tumor xenograft model; format: in vivo, nude mice; conditions: 200 μg ip
# Procedure: The NEO-101 antibody was tested for anti-tumor activity using the human AsPC-1 pancreas tumor xenograft model in nude mice. In this activity model, mice were implanted with human AsPC-1 tumor cells and allowed to establish to approximately 20-50 mm^3, measurable with a caliper in approximately 4-6 days. The treatment regimen included intraperitoneal injection of 200 μg of research-grade NEO-101 or a negative control human IgG (Pierce), followed on the next day with an intraperitoneal injection of IL-2-activated normal human PBMCs (approximately 2×10^7 per mouse per injection). Two cycles of treatment were administered such that antibody injections occurred on days 5 and 8, and PBMC injections occurred on days 6 and 9 in this study. Throughout the study, the tumor growth was monitored twice weekly by measurement with a caliper. Tumor volume was calculated using the equation: […], in units of cubic millimeters. If a tumor reached approximately 800 mm^3, or became ulcerated or necrotic, the mouse was humanely sacrificed. The study was terminated on study day 35.
# This anti-tumor activity study was repeated in a separate study using the same AsPC-1 pancreas tumor model and the 200 μg dose of NEO-101 antibody. However, in the second study, four cycles of treatment were administered instead of two cycles. […]
# [3] = biological target: T1, MUC5AC short construct; assay: Immunofluorescence of transfected CHO cells; format: cell-based; conditions: different plasmid clones of the MUC5AC short construct
# Excerpt: (§1) An exemplary amino acid sequence of MUC5AC is presented in SEQ ID NO: 36 with an exemplary nucleic acid sequence encoding MUC5AC presented in SEQ ID NO: 37. Therefore, a recombinant expression plasmid was designed and constructed that encoded residues upstream of tandem repeat units and two tandem repeat units (“MUC5AC-long” SEQ ID NO: 38 with the corresponding nucleic acid sequence of SEQ ID NO: 39). The MUC5AC long peptide corresponds to amino acid residues 2636 to 2942 of the MUC5AC protein (SEQ ID NO: 36). A second expression plasmid was designed and constructed that encoded primarily a short domain which connects to the central repetitive region and only a portion of the tandem repeat residues (“MUC5AC-short” SEQ ID NO: 40 with the nucleic acid encoding it in SEQ ID NO: 41). The MUC5AC short peptide corresponds to amino acid residues 2636 to 2763 of the MUC5AC protein (SEQ ID NO: 36). These smaller fragments of the large MUC5AC molecule were predicted to comprise NEO-101 antibody binding regions that contain the NPC-1 epitope(s).
# (§2) The DNA sequences that contained NEO-101 antibody binding regions, based on the amino acid sequence, were back-translated to nucleic acid sequence and the DNAs were synthesized by methods well-known in the art. […]
# [4] = biological target: T2, MUC5AC long construct; assay: Immunofluorescence of transfected CHO cells; format: cell-based; conditions: different plasmid clones of the MUC5AC long construct
# Excerpt: as §1, §2
# [5] = system: Prostate cancer; assay: Immunohistochemistry: human tissues with biotinylated NEO-101; format: binding
# Excerpt: Consequently, the positively stained “normal” tissues may have already undergone genotypic changes (“pre-cancerous”) resulting in the expression of the aberrantly glycosylated MUC5AC antigen that could lead to detection of carcinoma with NEO-101.
# [6] = system: LS174T colorectal tumor; assay: LS174T colorectal tumor xenograft model; format: in vivo, nude mice; conditions: same treatment regimen; last day P=0.0145
# Procedure: Since the LS174T colorectal tumor cell line served as a good target in vitro in the ADCC assay, this cell line was used in a xenograft tumor model. The LS174T cells were implanted subcutaneously in nude mice and the same treatment regimen was administered to these mice. […] Nonetheless, we observed a 2-3-fold reduction in tumor growth in NEO-101 treated mice compared to the 2 control groups of mice following the treatment cycles. The anti-tumor effect upon treatment with NEO-101 was significant on the last day of measuring tumors with P=0.0145 by one-way ANOVA. However, many of the tumors in the control groups became ulcerated and were greater than 1000 mm^3 and the study was terminated.
molecule,measurement,setting,value
B1,binding by immunofluorescence,[1],does not bind
same,tumor growth versus human IgG control,"[2]; four cycles, with PBMCs, significant from Day 18 (P=0.0044)",very similar growth inhibition
same,tumor growth versus control groups,"[2]; two cycles, with IL-2-activated human PBMCs, significant from day 13 (P=0.0072)",Tumor growth inhibition was observed
same,CHO cells bound by antibody,[3],11%-80%
same,CHO cells bound by antibody,[4],76%-88%
same,Tissue staining intensity +1,[5],(12%)
same,Tissue staining intensity +2,[5],(12%)
same,Tissue staining intensity Negative,[5],(75%)
same,Total Positive,[5],(25%)
same,Tissue staining intensity +1,[5]; samples/total,5/40
same,Tissue staining intensity +2,[5]; samples/total,5/40
same,Tissue staining intensity Negative,[5]; samples/total,30/40
same,Total Positive,[5]; samples/total,10/40
same,reduction in tumor growth compared to the 2 control groups,[6],2-3 fold

# Source: patent publication US11078245B2, “Colon and pancreas cancer peptidomimetics” (PRECISION BIOLOGICS, INC., priority 2010, dated 2021)
